Each block holds one binder with its values, some of them ahead of it.
How the values were obtained:
[1] = target: T1, human CD40 on the cell surface (normal B cells, B-CLL cells, EBV-transformed B cells, multiple myeloma cell … (human, UniProt P25942 20-277)); assay: cell-based or functional assay
[2] = target: T1, human CD40 on the cell surface (normal …); assay: cell-based or functional assay; remark: listed apart in the source
[3] = target: T2, human CD40, soluble / recombinant (ELISA and Biacore) (human, UniProt P25942 20-193); assay: Biacore (assay named in paragraph 181)
T2 construct: also called soluble CD40; recombinant CD40

[4] = target: T1, human CD40 on the cell surface (normal …); assay: cell-based or functional assay; remark: listed apart in the source

T1 sequence (P25942 20-277): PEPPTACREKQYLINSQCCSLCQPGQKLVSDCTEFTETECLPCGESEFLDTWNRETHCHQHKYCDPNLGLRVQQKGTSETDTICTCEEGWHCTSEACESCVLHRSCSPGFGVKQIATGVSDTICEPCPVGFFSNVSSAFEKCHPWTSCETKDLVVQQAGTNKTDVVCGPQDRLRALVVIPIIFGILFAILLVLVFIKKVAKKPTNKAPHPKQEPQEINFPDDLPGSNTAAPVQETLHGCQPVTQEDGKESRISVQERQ
T2 sequence (P25942 20-193): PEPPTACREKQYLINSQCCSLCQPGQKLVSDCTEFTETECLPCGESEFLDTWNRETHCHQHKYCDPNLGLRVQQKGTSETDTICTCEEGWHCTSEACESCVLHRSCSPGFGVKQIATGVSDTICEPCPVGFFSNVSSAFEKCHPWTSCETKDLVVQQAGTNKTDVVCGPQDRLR

MCP-1 secretion, CLL cells, CLL #1, fold induction over background [1]: 5.5 fold
hGM-CSF secretion, CLL cells, CLL #1, fold induction over background [1]: 7.6 fold
hIL-8 secretion, CLL cells, CLL #1, fold induction over background [1]: 4 fold
hIL-10 secretion, CLL cells, CLL #1, fold induction over background [1]: 9.2 fold
hTNF-α secretion, CLL cells, CLL #1, fold induction over background [1]: 3.3 fold
MCP-1 secretion, normal B cells, Donor 1, fold induction over background [2]: 5.5 fold
MCP-1 secretion, normal B cells, Donor 3, fold induction over background [2]: 1.7 fold
MIP-1β secretion, normal B cells, Donor 1, fold induction over background [2]: 2.2 fold
MIP-1β secretion, normal B cells, Donor 2, fold induction over background [2]: 2.6 fold
MIP-1β secretion, normal B cells, Donor 3, fold induction over background [2]: 17.8 fold
hIL-6 secretion, normal B cells, Donor 1, fold induction over background [2]: 5.7 fold
hIL-6 secretion, normal B cells, Donor 2, fold induction over background [2]: 3.8 fold
hIL-6 secretion, normal B cells, Donor 3, fold induction over background [2]: 20.5 fold
hIL-8 secretion, normal B cells, Donor 1, fold induction over background [2]: 7.7 fold
hIL-8 secretion, normal B cells, Donor 2, fold induction over background [2]: 14.7 fold
hIL-8 secretion, normal B cells, Donor 3, fold induction over background [2]: 49.3 fold
hIL-10 secretion, normal B cells, Donor 1, fold induction over background [2]: 3.6 fold
hIL-10 secretion, normal B cells, Donor 3, fold induction over background [2]: 3.6 fold
hTNF-α secretion, normal B cells, Donor 1, fold induction over background [2]: 3.7 fold
hTNF-α secretion, normal B cells, Donor 2, fold induction over background [2]: 4.8 fold
hTNF-α secretion, normal B cells, Donor 3, fold induction over background [2]: 22.8 fold
B1: CD40L on transfected, formaldehyde-fixed CHO cells (ligand)
chain: MIETYNQTSPRSAATGLPISMKIFMYLLTVFLITQMIGSALFAVYLHRRLDKIEDERNLHEDFVFMKTIQRCNTGERSLSLLNCEEIKSQFEGFVKDIMLNKEETKKENSFEMQKGDQNPQIAAHVISEASSKTTSVLQWAEKGYYTMSNNLVTLENGKQLTVKRQGLYYIYAQVTFCSNREASSQAPFIASLCLKSPGRFERILLRAANTHSSAKPCGQQSIHLGGVFELQPGASVFVNVTDPSQVSHGTGFTSFGLLKL

Kd [3]: 0.5 nM
B2: CHIR-12.12 fully human anti-CD40 monoclonal antibody (antibody, human IgG1, kappa, V domains shown)
VH: QVQLVESGGGVVQPGRSLRLSCAASGFTFSSYGMHWVRQAPGKGLEWVAVISYEESNRYHADSVKGRFTISRDNSKITLYLQMNSLRTEDTAVYYCARDGGIAAPGPDYWGQGTLVTVSS
VL: DIVMTQSPLSLTVTPGEPASISCRSSQSLLYSNGYNYLDWYLQKPGQSPQVLISLGSNRASGVPDRFSGSGSGTDFTLKISRVEAEDVGVYYCMQARQTPFTFGPGTKVDIRR
notes: Human IgG1 kappa from XenoMouse hybridoma; also called 153.8E2.D10.D6.12.12

Kd [3]: 12 nM
B3: CHIR-5.9 fully human anti-CD40 monoclonal antibody (antibody, V domains shown)
VH: EVQLVQSGAEVKKPGESLKISCKGSGYSFTSYWIGWVRQMPGKGLEWMGIIYPGDSDTRYSPSFQGQVTISADKSISTAYLQWSSLKASDTAMYYCARGTAAGRDYYYYYGMDVWGQGTTVTVSS
VL: AIVMTQPPLSSPVTLGQPASISCRSSQSLVHSDGNTYLNWLQQRPGQPPRLLIYKFFRRLSGVPDRFSGSGAGTDFTLKISRVEAEDVGVYYCMQVTQFPHTFGQGTRLEIKR
notes: Human IgG1 kappa from XenoMouse hybridoma; also called mAb CHIR-5.9; 131.2F8.5.9

cPARP flow cytometry, fold inhibition by rhsCD40L, CLL subject M1 [4]: 5.8 fold
cPARP flow cytometry, fold inhibition by rhsCD40L, CLL subject M2 [4]: 2.6 fold
cPARP flow cytometry, fold inhibition by rhsCD40L, CLL subject M3 [4]: 2.1 fold
cPARP flow cytometry, fold inhibition by rhsCD40L, CLL subject M4 [4]: 3.2 fold
cPARP flow cytometry, fold inhibition by rhsCD40L, CLL subject M5 [4]: 2.3 fold
cPARP flow cytometry, fold inhibition by rhsCD40L, CLL subject M6 [4]: 0.9 fold
cPARP flow cytometry, fold inhibition by rhsCD40L, CLL subject M7 [4]: 5.2 fold
cPARP flow cytometry, fold inhibition by rhsCD40L, Normal B [4]: 3 fold
B4: soluble recombinant human CD40L (Alexis Corporation) (ligand)
chain: GDQNPQIAAHVISEASSKTTSVLQWAEKGYYTMSNNLVTLENGKQLTVKRQGLYYIYAQVTFCSNREASSQAPFIASLCLKSPGRFERILLRAANTHSSAKPCGQQSIHLGGVFELQPGASVFVNVTDPSQVSHGTGFTSFGLLKL
CellTiter-Glo viability, fold induction by rhsCD40L, CLL subject M1 [4]: 3.1 fold
CellTiter-Glo viability, fold induction by rhsCD40L, CLL subject M2 [4]: 2.9 fold
CellTiter-Glo viability, fold induction by rhsCD40L, CLL subject M3 [4]: 1.9 fold
CellTiter-Glo viability, fold induction by rhsCD40L, CLL subject M4 [4]: 2.3 fold
CellTiter-Glo viability, fold induction by rhsCD40L, CLL subject M5 [4]: 3.5 fold
CellTiter-Glo viability, fold induction by rhsCD40L, CLL subject M6 [4]: 2.6 fold
CellTiter-Glo viability, fold induction by rhsCD40L, CLL subject M7 [4]: 3.8 fold
CellTiter-Glo viability, fold induction by rhsCD40L, Normal B [4]: 3 fold

Source: patent US20130230528A1 (Novartis, published 2013)
